From patent US10792332B2, “Anti-infective properties of antifreeze protein” (priority 2013, dated 2020)
Where “and” joins values, the source holds several entries; their conditions need not be identical. Identical values can stand only once. Entries after “also recorded” stand apart in the source; their conditions may differ. Ends that are not written are not given here.

Tests used:
S. aureus [1] = assay: Bacterial growth in vitro (OD600); format: cell-based, Staphylococcus aureus; details: 0.1 mg/ml in BHI/G, 37° C., SA113 or USA300 JE2
Description: A stationary culture of S. aureus was diluted to OD600=0.01 in BHI medium and supplemented with 0.2 mg/ml recombinant IAFGP-GST, BSA or PBS as control. Bacterial growth was measured over time at OD600 using a spectrophotometer. Growth curves from 5 independent experiments were pooled±SEM.
A stationary culture of S. aureus SA113 or USA300 JE2 was diluted in BHI/G to OD600=0.01 supplemented with 0.1 mg/ml IAFGP-GST, GST, P1, sP1 or media alone. Following static incubation at 37° C. for 24 h bacterial density was measured at OD600 using a spectrophotometer.

[2] = Murine subcutaneous catheter implant model; format: in vivo, C57Bl/6 mice; details: under the conditions used
Description: FIG. 5A depicts bacterial attachment to intravenous catheters that had been incubated in PBS, GST, GST-IAFGP, P2 and P21c before transferring into S. aureus SA113 suspensions. Bacterial attachment was quantified after sonication by plating serial dilutions. Data were pooled from 3 independent experiments (One-Way-ANOVA; *: p<0.05). FIG. 5B presents bacterial attachment to intravenous catheters that had been incubated in PBS, P1 or sP1 and implanted subcutaneously on the dorsal flanks of C57Bl/6 mice. 72 hrs after catheter inoculation with 5×10^5 CFU S. aureus SA113 the catheters were removed and the attached bacteria were quantified by plating serial dilutions. […]
Seven days after catheter inoculation with S. aureus SA113, the catheters were removed, and the attached bacteria were quantified by plating serial dilutions.
(§1) Cecal ligation and puncture surgery was performed as described^26,41 Mice were anesthesized using isoflurane inhalation and the cecum was exteriorized through a peritoneal midline incision. […] Body surface temperature was measured dorsally using an infrared thermometer. A retro-orbital blood sample was taken daily and the cytokine levels of TNF-α, IL-6, IL12b and MCP-1 were measured using enzyme-linked immunosorbent assay (ELISA) kits (eBiosciences, San Diego, Calif.). […] The number of attached bacteria was determined by plating serial dilutions on agar plates.

S. aureus [3] = assay: Static biofilm assay (safranin stain); format: cell-based, Staphylococcus aureus; details: preliminary data
Description: Biofilm assays were performed as described^38. Briefly, planktonic overnight cultures of S. aureus were diluted in glucose-supplemented tryptic soy broth or brain-heart-infusion broth (1% glucose; TSB/G or BHI/G) to OD600=0.015 and distributed into 96 well plates (Corning, NC). After an 18 h incubation at 37° C. bacterial growth in each well was confirmed by the measurement of OD600 using a spectrophotometer (BioTek, VT). The supernatant was discarded and the wells were washed with water twice. Bacteria associated with the well surface were dried and stained with safranin. The dye was then dissolved in 33% acetid acid and quantified at OD415 nm using a spectrophotometer (BioTek, VT). Bacterial attachment to catheter materials pre-incubated with peptides was investigated. Vialon™ catheters (BD Biosciences, NJ) were incubated for 18 h in 0.1 mg/ml peptides dissolved in PBS, washed with PBS and incubated in bacterial suspensions for 24 h. Following removal of non-adherent bacteria with repeated washing, adherent bacteria and biofilms were dissociated using sonication in PBS. Bacterial titers were quantified by plating serial dilutions on agar plates and were calculated per as CFU per catheter.

S. aureus SA113 [4] = assay: S. aureus microinjection challenge of iafgp-expressing fruit flies; format: in vivo, D. melanogaster
Description: FIGS. 3A-3E present transgenic expression of iafgp in fruit flies and susceptibility of transgenic flies to S. aureus challenge in vivo. […] Survival data were pooled from 6 independent experiments (Log-rank test; p<0.001). […] Bacterial colonization of individual flies was determined by plating serial dilutions. Data was pooled from 3 independent experiments (One-Way-ANOVA with Tukey's post-test; ***: p<0.001; **: p<0.01; *: p<0.05). FIG. 3C presents PNAG production in iafgp-transgenic and control flies challenged with S. aureus SA113. PNAG levels of pools of 5 flies were assessed at different time points by immunoblot. Average signal intensities of 3 independent experiments±SEM with representative immunoblot images below are shown (Two-Way-ANOVA with Sidak's post test;[…]). FIG. 3D presents PNAG production in iafgp-transgenic and control flies challenged with S. aureus SA113. Paraffin sections of whole flies were stained for bacteria and PNAG. Black triangles point to bacteria, empty triangles indicate PNAG staining. […] Survival data were pooled from 4 independent experiments (Log-rank test; not significant).
Iafgp-expressing and mCherry-expressing flies were generated as described^13. D. melanogaster flies were maintained using standard procedures^39. The fly colony was sustained at 21-23° C. Following infection, flies were incubated at 29° C. to increase UAS-mediated transgene expression. Five to 9 day old females were used for experiments. Twenty to 30 flies per vial were infected by microinjection as reviewed in^40 and survival was monitored. Microinjection was performed into the thorax below the wing using a Nanojet microinjector (Drummond Scientific, PA). Bacteria in stationary growth phase were diluted in PBS to OD600=0.01 or OD600=0.1 and 9.2 nl were injected, corresponding to an infectious dose of 50-100 to 500-1000 CFU per fly respectively. For CFU analysis individual flies were homogenized in […] using a bullet blender (Nextadvance, NY) and steel beads. Serial dilutions were plated on brain-heart-infusion agar plates and incubated at 37° C. overnight. Endogenous fly bacteria only grew to pinprick-size overnight, allowing visual distinction of the fast-growing bacteria used for infection (data not shown). mRNA was isolated from individual flies homogenized in […] using RNAeasy kit (Qiagen, Hilden, Germany). Following DNAse digestion with Turbo DNA-free Kit (Ambion/Life Technologies, NY) RNA was reverse-transcribed with iScript cDNA synthesis kit (BioRad, CA) and gene expression was quantified by qRT-PCR using iQ SYBR Green Supermix (BioRad, CA).

S. aureus SA113 [5] = assay: Bacterial attachment to pre-incubated intravenous catheters in vitro; format: cell-based, Staphylococcus aureus
Description: FIG. 5A depicts bacterial attachment to intravenous catheters that had been incubated in PBS, GST, GST-IAFGP, P2 and P21c before transferring into S. aureus SA113 suspensions. Bacterial attachment was quantified after sonication by plating serial dilutions. Data were pooled from 3 independent experiments (One-Way-ANOVA; *: p<0.05). FIG. 5B presents bacterial attachment to intravenous catheters that had been incubated in PBS, P1 or sP1 and implanted subcutaneously on the dorsal flanks of C57Bl/6 mice. 72 hrs after catheter inoculation with 5×10^5 CFU S. aureus SA113 the catheters were removed and the attached bacteria were quantified by plating serial dilutions. CFU data were pooled from 3 independent experiments (One-Way-ANOVA with Tukey's post-test; **: p<0.01). […] S. aureus are indicated by black triangles, biofilm matrix are indicated by empty triangles.
Biofilm assays were performed as described^38. Briefly, planktonic overnight cultures of S. aureus were diluted in glucose-supplemented tryptic soy broth or brain-heart-infusion broth (1% glucose; TSB/G or BHI/G) to OD600=0.015 and distributed into 96 well plates (Corning, NC). […] The dye was then dissolved in 33% acetid acid and quantified at OD415 nm using a spectrophotometer (BioTek, VT). […] Bacterial titers were quantified by plating serial dilutions on agar plates and were calculated per as CFU per catheter.

polymicrobial sepsis = assay: Cecal ligation and puncture (polymicrobial sepsis) in iafgp-transgenic mice; format: in vivo
Excerpt: Iafgp was constitutively expressed under control of the chicken β-actin promoter in an iafgp-transgenic mouse line. The promoter region was excised from pβAct-CAT 9 (ATCC, VA) using XhoI and HindIII and subcloned into the pEGFP-1 vector (Clontech, CA). EGFP was removed from pβAct-EGFP-1 by digestion with BamHI and NotI resulting in pβAct-1. Iafgp was then PCR-amplified using oligomers iafgp BamHI F and iafgp NotI R, introducing the corresponding restriction sites. The PCR fragment was digested and cloned into linearized pβAct-1, resulting in pβAct-iafgp. For microinjection, the transgene fragment containing the β-actin promoter and iafgp gene was excised from pβAct-iafgp by digestion with XhoI and AflII restriction enzymes and gel purified. Microinjection was performed in […] (C57BL/6×C3H) and mice were genotyped by PCR analysis of tail biopsies using IAFP4qRTF and IAFP4qRTR. mRNA expression of iafgp was confirmed in multiple tissues using the same primers for qRT-PCR. Transgenic iafgp-expressing mice were backcrossed for 8 generations to C57Bl/6 mice (Charles River, Mass.). Heterozygous experimental mice of 6-12 weeks were age- and sex-matched with wild-type littermates and wild-type C57Bl/6 as control. All mice were housed at 20-22° C. with water and food ad libitum. Animal handling was performed according to protocols approved by the Yale animal care and use committee.
as §1, with “incision. Seventy-five percent of the cecum was ligated and punctured through and through with a 21G hypodermic needle.” for “incision.”

S. aureus USA300 JE2 = assay: Intranasal MRSA challenge of iafgp-transgenic mice; format: in vivo; details: iafgp-transgenic mice vs controls
Description: Iafgp-expressing mice were infected with USA300 JE2. 1.2×10^8 CFU logarithmic growth phase bacteria per mouse were applied intranasally in 50 μl PBS and murine survival was monitored.

Listeria monocytogenes = assay: Needle prick infection of iafgp-expressing fruit flies; format: in vivo, D. melanogaster
Excerpt: (§2) A 0.6 μm tungsten needle was dipped into a 1:10 diluted stationary culture of L. monocytogenes and flies were pricked in the right lateral side of the thorax. Fly survival was monitored visually over the course of infection. Uninfected controls (n.i.; n=40) were pricked with a needle dipped into PBS. Data were pooled from 2 independent experiments (Log-rank test; p<0.005). […] Groups of 20-25 flies were transferred into vials containing only a piece of absorbing tissue. Stationary bacterial cultures, resuspended in 4% sucrose and diluted 2-fold were used to soak the paper, controls received only sucrose solution. Every 3 days the flies were transferred into new vials with freshly soaked tissue, and bacterial survival was measured. […] Uninfected controls (n.i.; n=40) were housed in vials with 4% sucrose. Data were pooled from 2 independent experiments (Log-rank test; p<0.001/p<0.001).

Pseudomonas entomophila = assay: Oral infection of iafgp-expressing fruit flies; format: in vivo, D. melanogaster
Excerpt: as §2

Serratia marcescens = assay: Oral infection of iafgp-expressing fruit flies; format: in vivo, D. melanogaster
Excerpt: as §2

[6] = iafgp-expressing flies vs controls

AAAAATATAAARRAAAAPTTAKTT [sP1, P2 randomized, soluble, negative control]
bacterial density/viability at OD600 after 24 h static incubation (S. aureus [1]): Neither proteins nor peptides affected bacterial growth

PARKARAATAATAATAATAATAAT [P1]
toxicity in vivo [2]: no signs of toxicity

PARKARAATPATPATAATPATAAT (listed as Ixodes scapularis) [P0]
anti-biofilm activity (S. aureus [3]): anti-biofilm activity has been identified

B1: IAFGP: Ixodes scapularis anti-freeze glycoprotein, 251 amino acids, SEQ ID NO: 3; also expressed transgenically in flies and mice (protein, listed as Ixodes scapularis)
chain: MTTLLRLTILIVAVAGVLGSSKRAARAATPATAATPATPATAATPAIAATPATAATPATAATPARKARAATPATPATPATAATPATAATPARKARAATAATPATPATAATPARKARAATPATPATAATPATAATPARKARAATPATPATAATPATAATPARKARAATPATPATAATPATAATPARKARAATPATPATAATAATPARKARAATAATPATPATAATPARKARAATPATAATAATPATAATAAA
pathogen titers in flies over the course of infection (S. aureus SA113 [4]; iafgp-expressing flies): remained stable over the course of infection
PNAG quantity during S. aureus infection of flies (S. aureus SA113 [4]; [6]): reduced
fly survival after S. aureus microinjection (S. aureus SA113 [4]; [6]): enhanced survival
effect of IAFGP on flies challenged with PNAG-deficient S. aureus ΔicaADBC mutant (S. aureus SA113 [4]; ΔicaADBC mutant): completely abrogated
bacterial attachment / biofilm formation on intravenous catheters in vitro (S. aureus SA113 [5]): altered bacterial attachment; also recorded: reduced biofilm formation
lowering of catheter-associated bacteria in comparison to untreated controls (S. aureus SA113 [5]; catheters incubated in protein or peptide solution, then S. aureus suspension): 9 fold
general health and activity (disease score) (polymicrobial sepsis; 24-36 h after surgery, transgenic vs control mice): significantly better general health and activity
extended (average) survival compared to controls after CLP (polymicrobial sepsis; iafgp-expressing mice): 40% and 35%
hypothermia and serum cytokine release of MCP-1, TNF-α, IL6 and IL12p40 (polymicrobial sepsis; iafgp-expressing mice vs controls): delayed
survival after intranasal MRSA challenge (S. aureus USA300 JE2): increased survival; also recorded: enhanced survival
fly survival after L. monocytogenes infection (Listeria monocytogenes): increased fly survival
fly survival after P. entomophila infection (Pseudomonas entomophila): increased fly survival
fly survival after S. marcescens infection (Serratia marcescens): increased fly survival
